Results: patent publication US20100260668A1 (published 2010)

B1: DVD476 (VEGF (seq. 1) N-terminal / DLL4 (seq. 1) C-terminal DVD-Ig, long HC linker, short LC linker) (bispecific antibody, human IgG1, kappa)
heavy: not shown
light: DIQMTQSPSSLSASVGDRVTITCSASQDISNYLNWYQQKPGKAPKVLIYFTSSLHSGVPSRFSGSGSGTDFTLTISSLQPEDFATYYCQQYSTVPWTFGQGTKVEIKRTVAAPDIQMTQSPSSLSASVGDRVTITCRASQDVSTAVAWYQQKPGKAPKLLIYSASFLYSGVPSRFSGSGSGTDFTLTISSLQPEDFATTYYCQQSYTGTVTFGQGTKVEIKRTVAAPSVFIFPPSDEQLKSGTASVVCLLNNFYPREAKVQWKVDNALQSGNSQESVTEQDSKDSTYSLSSTLTLSKADYEKHKVYACEVTHQGLSSPVTKSFNRGEC
notes: also called DVD476H/DVD476L
B2: DVD471 (DLL4 (seq. 1) N-terminal / VEGF (AB070) C-terminal DVD-Ig, long HC linker, long LC linker) (bispecific antibody, human IgG1, kappa, L234A L235A)
heavy: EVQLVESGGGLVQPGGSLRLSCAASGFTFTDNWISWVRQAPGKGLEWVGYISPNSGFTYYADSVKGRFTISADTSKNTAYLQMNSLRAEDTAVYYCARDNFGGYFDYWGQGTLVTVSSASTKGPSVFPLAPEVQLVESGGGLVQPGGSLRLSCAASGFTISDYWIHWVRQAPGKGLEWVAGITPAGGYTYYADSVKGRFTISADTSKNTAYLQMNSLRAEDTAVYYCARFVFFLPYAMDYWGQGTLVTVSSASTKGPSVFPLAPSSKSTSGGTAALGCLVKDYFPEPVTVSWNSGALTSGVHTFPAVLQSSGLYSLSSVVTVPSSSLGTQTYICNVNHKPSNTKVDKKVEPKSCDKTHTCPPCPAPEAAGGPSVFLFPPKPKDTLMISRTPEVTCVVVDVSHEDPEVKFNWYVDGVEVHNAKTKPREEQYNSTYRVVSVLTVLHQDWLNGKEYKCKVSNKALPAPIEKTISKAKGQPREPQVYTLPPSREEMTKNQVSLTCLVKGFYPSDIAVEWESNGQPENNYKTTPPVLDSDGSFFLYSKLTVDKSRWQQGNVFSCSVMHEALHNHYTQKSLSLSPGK
light: DIQMTQSPSSLSASVGDRVTITCRASQDVSTAVAWYQQKPGKAPKLLIYSASFLYSGVPSRFSGSGSGTDFTLTISSLQPEDFATTYYCQQSYTGTVTFGQGTKVEIKRTVAAPSVFIFPPDIQMTQSPSSLSASVGDRVTITCRASQDVSTAVAWYQQKPGKAPKLLIYSASFLYSGVPSRFSGSGSGTDFTLTISSLQPEDFATYYCQQSYTTPPTFGQGTKVEIKRTVAAPSVFIFPPSDEQLKSGTASVVCLLNNFYPREAKVQWKVDNALQSGNSQESVTEQDSKDSTYSLSSTLTLSKADYEKHKVYACEVTHQGLSSPVTKSFNRGEC
notes: also called DVD471H/DVD471L
B3: DVD470 (VEGF (seq. 1) N-terminal / DLL4 (seq. 1) C-terminal DVD-Ig, long HC linker, long LC linker) (bispecific antibody, human IgG1, kappa)
heavy: not shown
light: DIQMTQSPSSLSASVGDRVTITCSASQDISNYLNWYQQKPGKAPKVLIYFTSSLHSGVPSRFSGSGSGTDFTLTISSLQPEDFATYYCQQYSTVPWTFGQGTKVEIKRTVAAPSVFIFPPDIQMTQSPSSLSASVGDRVTITCRASQDVSTAVAWYQQKPGKAPKLLIYSASFLYSGVPSRFSGSGSGTDFTLTISSLQPEDFATTYYCQQSYTGTVTFGQGTKVEIKRTVAAPSVFIFPPSDEQLKSGTASVVCLLNNFYPREAKVQWKVDNALQSGNSQESVTEQDSKDSTYSLSSTLTLSKADYEKHKVYACEVTHQGLSSPVTKSFNRGEC
notes: also called DVD470H/DVD470L
B4: DVD482 (VEGF (seq. 1) N-terminal / DLL4 (seq. 1) C-terminal DVD-Ig, short HC linker, long LC linker) (bispecific antibody, human IgG1, kappa)
heavy: not shown
light: B3 light
notes: also called DVD482H/DVD482L
B5: DVD491 (bispecific antibody, human IgG1, kappa)
heavy: not shown
light: DIQMTQSSSYLSVSLGGRVTITCKASDHINNWLAWYQQKPGNAPRLLISGATSLETGVPSRFSGSGSGKDYTLSITSLQTEDVATYYCQQYWSIPLTFGAGTKLELKRTVAAPDIQMTQSPSSLSASVGDRVTITCRASQVIRRSLAWYQQKPGKAPKLLIYAASNLASGVPSRFSGSGSGTDFTLTISSLQPEDFATYYCQQSNTSPLTFGQGTKVEIKRTVAAPSVFIFPPSDEQLKSGTASVVCLLNNFYPREAKVQWKVDNALQSGNSQESVTEQDSKDSTYSLSSTLTLSKADYEKHKVYACEVTHQGLSSPVTKSFNRGEC
notes: DVD-Ig; outer AB072 (DLL4), inner AB071 (VEGF); HC short, LC short linker; also called DVD491H; DVD491L
B6: DVD515 (bispecific antibody, human IgG1, kappa)
heavy: not shown
light: QAVVTQESALTTSPGETVTLTCRSSTGAVTTSNYANWVQEKPDHLFTGLIGGTNNRAPGVPARFSGSLIGDKAALTITGAQTEDEAIYFCALWYSNHWVFGGGTKLTVLGQPKAAPDIQMTQSPSSLSASVGDRVTITCRASQVIRRSLAWYQQKPGKAPKLLIYAASNLASGVPSRFSGSGSGTDFTLTISSLQPEDFATYYCQQSNTSPLTFGQGTKVEIKRTVAAPSVFIFPPSDEQLKSGTASVVCLLNNFYPREAKVQWKVDNALQSGNSQESVTEQDSKDSTYSLSSTLTLSKADYEKHKVYACEVTHQGLSSPVTKSFNRGEC
notes: DVD-Ig; outer AB073 (DLL4), inner AB071 (VEGF); HC short, LC short linker; also called DVD515H; DVD515L
B7: DVD467 (bispecific antibody, human IgG1, kappa)
heavy: not shown
light: DIQMTQSPSSLSASVGDRVTITCRASQDVSTAVAWYQQKPGKAPKLLIYSASFLYSGVPSRFSGSGSGTDFTLTISSLQPEDFATTYYCQQSYTGTVTFGQGTKVEIKRTVAAPDIQMTQSPSSLSASVGDRVTITCRASQVIRRSLAWYQQKPGKAPKLLIYAASNLASGVPSRFSGSGSGTDFTLTISSLQPEDFATYYCQQSNTSPLTFGQGTKVEIKRTVAAPSVFIFPPSDEQLKSGTASVVCLLNNFYPREAKVQWKVDNALQSGNSQESVTEQDSKDSTYSLSSTLTLSKADYEKHKVYACEVTHQGLSSPVTKSFNRGEC
notes: DVD-Ig; outer AB015 (DLL4), inner AB071 (VEGF); HC short, LC short linker; also called DVD467H; DVD467L
B8: DVD445 (bispecific antibody, human IgG1, kappa)
heavy: not shown
light: DIVMTQSPDSLAVSLGERATISCRASESVDNYGISFMKWFQQKPGQPPKLLIYAASNQGSGVPDRFSGSGSGTDFTLTISSLQAEDVAVYYCQQSKEVPWTFGGGTKVEIKRTVAAPDIQMTQSPSSLSASVGDRVTITCRASQVIRRSLAWYQQKPGKAPKLLIYAASNLASGVPSRFSGSGSGTDFTLTISSLQPEDFATYYCQQSNTSPLTFGQGTKVEIKRTVAAPSVFIFPPSDEQLKSGTASVVCLLNNFYPREAKVQWKVDNALQSGNSQESVTEQDSKDSTYSLSSTLTLSKADYEKHKVYACEVTHQGLSSPVTKSFNRGEC
notes: DVD-Ig; outer AB069 (DLL4), inner AB071 (VEGF); HC short, LC short linker; also called DVD445H; DVD445L
B9: DVD451 (bispecific antibody, human IgG1, kappa, L234A L235A)
heavy: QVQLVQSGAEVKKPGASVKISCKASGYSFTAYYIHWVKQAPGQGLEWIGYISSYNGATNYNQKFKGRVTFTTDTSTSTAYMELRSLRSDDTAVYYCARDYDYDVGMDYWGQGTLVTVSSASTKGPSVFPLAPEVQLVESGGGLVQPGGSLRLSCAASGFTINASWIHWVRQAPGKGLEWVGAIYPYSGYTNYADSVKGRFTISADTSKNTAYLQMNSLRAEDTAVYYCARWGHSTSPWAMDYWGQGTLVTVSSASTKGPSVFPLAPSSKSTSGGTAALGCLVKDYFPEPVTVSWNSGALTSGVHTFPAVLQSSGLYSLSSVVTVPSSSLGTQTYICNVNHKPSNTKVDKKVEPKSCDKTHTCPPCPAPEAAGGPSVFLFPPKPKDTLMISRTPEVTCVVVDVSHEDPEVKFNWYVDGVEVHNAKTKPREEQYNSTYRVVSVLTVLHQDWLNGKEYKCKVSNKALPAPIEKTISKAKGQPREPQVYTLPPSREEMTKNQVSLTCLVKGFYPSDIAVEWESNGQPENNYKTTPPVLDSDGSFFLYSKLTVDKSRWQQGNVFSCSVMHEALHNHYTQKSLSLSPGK
light: DIVMTQSPDSLAVSLGERATISCRASESVDNYGISFMKWFQQKPGQPPKLLIYAASNQGSGVPDRFSGSGSGTDFTLTISSLQAEDVAVYYCQQSKEVPWTFGGGTKVEIKRTVAAPSVFIFPPDIQMTQSPSSLSASVGDRVTITCRASQVIRRSLAWYQQKPGKAPKLLIYAASNLASGVPSRFSGSGSGTDFTLTISSLQPEDFATYYCQQSNTSPLTFGQGTKVEIKRTVAAPSVFIFPPSDEQLKSGTASVVCLLNNFYPREAKVQWKVDNALQSGNSQESVTEQDSKDSTYSLSSTLTLSKADYEKHKVYACEVTHQGLSSPVTKSFNRGEC
notes: DVD-Ig; outer AB069 (DLL4), inner AB071 (VEGF); HC long, LC long linker; also called DVD451H; DVD451L
B10: DVD521 (bispecific antibody, human IgG1, kappa, lambda, L234A L235A)
heavy: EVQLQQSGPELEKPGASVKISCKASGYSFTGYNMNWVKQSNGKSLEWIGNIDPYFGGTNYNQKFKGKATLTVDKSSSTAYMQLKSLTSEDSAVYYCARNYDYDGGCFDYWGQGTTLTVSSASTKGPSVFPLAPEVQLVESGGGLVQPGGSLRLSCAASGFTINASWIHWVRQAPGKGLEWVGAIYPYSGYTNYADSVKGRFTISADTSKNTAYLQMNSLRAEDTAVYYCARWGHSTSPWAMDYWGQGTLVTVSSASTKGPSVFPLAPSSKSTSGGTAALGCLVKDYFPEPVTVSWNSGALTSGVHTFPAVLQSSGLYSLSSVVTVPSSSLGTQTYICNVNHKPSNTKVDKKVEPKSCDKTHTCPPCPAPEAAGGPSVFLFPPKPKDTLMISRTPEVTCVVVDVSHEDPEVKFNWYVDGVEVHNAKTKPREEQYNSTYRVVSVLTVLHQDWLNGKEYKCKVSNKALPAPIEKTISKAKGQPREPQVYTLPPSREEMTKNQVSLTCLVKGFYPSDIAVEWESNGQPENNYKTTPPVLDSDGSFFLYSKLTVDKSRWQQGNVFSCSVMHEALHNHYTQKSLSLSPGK
light: QAVVTQESALTTSPGETVTLTCRSSTGAVTTSNYANWVQEKPDHLFTGLIGGTNNRAPGVPARFSGSLIGDKAALTITGAQTEDEAIYFCALWYSNHWVFGGGTKLTVLGQPKAAPSVTLFPPDIQMTQSPSSLSASVGDRVTITCRASQVIRRSLAWYQQKPGKAPKLLIYAASNLASGVPSRFSGSGSGTDFTLTISSLQPEDFATYYCQQSNTSPLTFGQGTKVEIKRTVAAPSVFIFPPSDEQLKSGTASVVCLLNNFYPREAKVQWKVDNALQSGNSQESVTEQDSKDSTYSLSSTLTLSKADYEKHKVYACEVTHQGLSSPVTKSFNRGEC
notes: DVD-Ig; outer AB073 (DLL4), inner AB071 (VEGF); HC long, LC long linker; also called DVD521H; DVD521L
B11: DVD497 (bispecific antibody, human IgG1, kappa)
heavy: not shown
light: DIQMTQSSSYLSVSLGGRVTITCKASDHINNWLAWYQQKPGNAPRLLISGATSLETGVPSRFSGSGSGKDYTLSITSLQTEDVATYYCQQYWSIPLTFGAGTKLELKRTVAAPSVFIFPPDIQMTQSPSSLSASVGDRVTITCRASQVIRRSLAWYQQKPGKAPKLLIYAASNLASGVPSRFSGSGSGTDFTLTISSLQPEDFATYYCQQSNTSPLTFGQGTKVEIKRTVAAPSVFIFPPSDEQLKSGTASVVCLLNNFYPREAKVQWKVDNALQSGNSQESVTEQDSKDSTYSLSSTLTLSKADYEKHKVYACEVTHQGLSSPVTKSFNRGEC
notes: DVD-Ig; outer AB072 (DLL4), inner AB071 (VEGF); HC long, LC long linker; also called DVD497H; DVD497L
B12: DVD473 (bispecific antibody, human IgG1, kappa)
heavy: not shown
light: DIQMTQSPSSLSASVGDRVTITCRASQDVSTAVAWYQQKPGKAPKLLIYSASFLYSGVPSRFSGSGSGTDFTLTISSLQPEDFATTYYCQQSYTGTVTFGQGTKVEIKRTVAAPSVFIFPPDIQMTQSPSSLSASVGDRVTITCRASQVIRRSLAWYQQKPGKAPKLLIYAASNLASGVPSRFSGSGSGTDFTLTISSLQPEDFATYYCQQSNTSPLTFGQGTKVEIKRTVAAPSVFIFPPSDEQLKSGTASVVCLLNNFYPREAKVQWKVDNALQSGNSQESVTEQDSKDSTYSLSSTLTLSKADYEKHKVYACEVTHQGLSSPVTKSFNRGEC
notes: DVD-Ig; outer AB015 (DLL4), inner AB071 (VEGF); HC long, LC long linker; also called DVD473H; DVD473L
B13: DVD479 (bispecific antibody, human IgG1, kappa)
heavy: not shown
light: B7 light
notes: DVD-Ig; outer AB015 (DLL4), inner AB071 (VEGF); HC long, LC short linker; also called DVD479H; DVD479L
B14: DVD457 (bispecific antibody, human IgG1, kappa, L234A L235A)
heavy: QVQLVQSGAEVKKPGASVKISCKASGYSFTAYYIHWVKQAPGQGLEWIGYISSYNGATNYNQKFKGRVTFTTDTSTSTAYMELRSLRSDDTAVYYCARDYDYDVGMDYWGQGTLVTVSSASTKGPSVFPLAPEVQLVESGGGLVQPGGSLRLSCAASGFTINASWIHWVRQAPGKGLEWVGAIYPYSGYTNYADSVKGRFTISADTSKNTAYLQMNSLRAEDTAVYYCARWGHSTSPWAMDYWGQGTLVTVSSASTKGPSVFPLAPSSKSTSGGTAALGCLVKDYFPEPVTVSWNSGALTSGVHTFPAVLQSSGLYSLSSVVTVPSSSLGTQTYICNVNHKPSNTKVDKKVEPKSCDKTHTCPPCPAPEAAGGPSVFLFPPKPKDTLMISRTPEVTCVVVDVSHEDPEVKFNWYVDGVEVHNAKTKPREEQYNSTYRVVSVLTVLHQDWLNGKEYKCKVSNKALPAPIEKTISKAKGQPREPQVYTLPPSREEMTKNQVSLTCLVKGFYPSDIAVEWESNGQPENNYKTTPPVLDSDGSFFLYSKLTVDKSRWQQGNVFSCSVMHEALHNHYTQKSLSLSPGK
light: B8 light
notes: DVD-Ig; outer AB069 (DLL4), inner AB071 (VEGF); HC long, LC short linker; also called DVD457H; DVD457L

What follows are binders tested against T1, human DLL4 extracellular domain (human, UniProt Q9NR61 27-529, biotin label in the Notch-1 competition ELISA (sites not given)) (assay: competition ELISA: 14 nM biotin-labelled human DLL4 ECD pre-mixed with DVD-Ig, then on coated human Notch-1 (competitor Notch-1)).
T1 construct: extracellular domain; also called biotin labeled human DLL4 extracellular domain

Compared with B1, B2 is 1.8-fold lower in IC50: 4.9 nM for the first, 2.66 nM for the second. The second is the more potent here.

B3 and B4 are within 1.5-fold of each other in IC50: 2.82 nM for the first, 2.65 nM for the second.

What follows are binders tested against T2, DLL4 ECD/His tag (R&D 1506-D4-050) (UniProt Q9NR61 27-529) (assay: direct bind ELISA, DLL4 on plate; DLL4 VD N-term.; HC Short, LC Short).
T2 construct: extracellular domain; Bought antigen coated on the ELISA plate; not shown: His tag

Compared with B5, B6 is 1.9-fold lower in EC50: 0.39 nM for the first, 0.2 nM for the second.

Compared with B7, B8 is 3.2-fold lower in EC50: 0.54 nM for the first, 0.17 nM for the second.

What follows are binders tested against T3, human DLL4 on 293G-human DLL4 cells (human, UniProt Q9NR61 27-685) (assay: FACS: inhibition of Notch1 binding to 293G-human DLL4 cells (competitor Notch1)).
T3 construct: whole, on cells; no method paragraph describes this FACS assay

Going from B1 to B2, the IC50 falls from 15.1 nM to 4.1 nM (3.7-fold).

First: B3
Second: B4
The IC50 of the first is 2.3-fold higher: 38.3 nM for the first, 16.3 nM for the second.

These binders were tested against T1, human DLL4 extracellular domain (assay: cell-based or functional assay).

B1 and B2 are within 1.5-fold of each other in “DVD-Ig Inhibition of sFlt1 (IC50, nM)” value: 1.68 nM for the first, 1.92 nM for the second.

B3 and B4 are within 1.5-fold of each other in “DVD-Ig Inhibition of sFlt1 (IC50, nM)” value: 1.02 nM for the first, 1.11 nM for the second.

What follows are binders tested against T2, DLL4 ECD/His tag (R&D 1506-D4-050) (assay: direct bind ELISA, DLL4 on plate; DLL4 VD N-term.; HC Long, LC Long).
Description: (§1) Enzyme Linked Immunosorbent Assays to screen for antibodies that bind a desired target antigen were performed as follows. […] Plates were washed four times with PBS containing 0.02% Tween 20. Plates were blocked by the addition of 300 μL/well blocking solution (non-fat dry milk powder, various retail suppliers, diluted to 2% in PBS) for ½ hour at room temperature. Plates were washed four times after blocking with PBS containing 0.02% Tween 20.
(§2) Alternatively, one hundred microliters per well of 10 μg/ml of Histidine (His) tagged desired target antigen (R&D Systems, Minneapolis, Minn.) was added to ELISA plates coated with monoclonal mouse anti-polyHistidine antibody as described above and incubated for 1 hour at room temperature. Wells were washed four times with PBS containing 0.02% Tween 20.
(§3) One hundred microliters of antibody or DVD-Ig preparations diluted in blocking solution as described above was added to the desired target antigen plate or desired target antigen/FC fusion plate or the anti-polyHistidine antibody/His tagged desired target antigen plate prepared as described above and incubated for 1 hour at room temperature. Wells are washed four times with PBS containing 0.02% Tween 20.

First: B9
Second: B10
The EC50 of the first is 1.5-fold higher: 0.4 nM for the first, 0.26 nM for the second. The second is the more potent here.

First: B11
Second: B12
The EC50 of the first is 3.4-fold lower: 0.53 nM for the first, 1.8 nM for the second. The first is the more potent here.

Each binder was assayed against T4, VEGF (biotinylated VEGF; VEGF165) (UniProt P15692-4 27-191, biotinylated (sites not given)) (assay: competition ELISA: DVD-Ig pre-incubated with 2 nM biotinylated VEGF, then on coated VEGFR1 ECD-Fc (competitor VEGFR1-Fc)).
T4 construct: the method paragraph says only 'biotinylated VEGF'
T4 sequence (P15692 other isoform, or with tags, fused parts or gaps limits assumed): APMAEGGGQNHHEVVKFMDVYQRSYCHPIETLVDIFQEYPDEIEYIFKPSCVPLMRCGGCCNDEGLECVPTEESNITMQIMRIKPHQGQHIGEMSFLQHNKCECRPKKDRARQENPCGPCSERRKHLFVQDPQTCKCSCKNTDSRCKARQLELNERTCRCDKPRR

Going from B1 to B2, the IC50 rises from 2.4 nM to 5.46 nM (2.3-fold). The first is the more potent here.

Compared with B3, B4 is 1.6-fold lower in IC50: 2.7 nM for the first, 1.7 nM for the second.

Each binder was assayed against T2, DLL4 ECD/His tag (R&D 1506-D4-050) (assay: direct bind ELISA, DLL4 on plate; DLL4 VD N-term.; HC Long, LC Short).
Description: as §1, §2, §3

First: B13
Second: B14
The EC50 of the first is 13-fold higher: 1.69 nM for the first, 0.13 nM for the second.
